One test deals with NaV1.4 p.R222G channel (UniProt P35499).
A further test has as its target NaV1.4 p.R222W channel (UniProt P35499).
Test [1] concerns the target VSD-I of human NaV1.4 (residues L114–S246) (human) (UniProt P35499). As to the kind of experiment: NMR titration.

pKd: −log10 of the molar value.

A word on the pKd: it is the negative decadic logarithm of the Kd, by convention in mol/L. High values mean a small Kd, low ones a large Kd.

Take “Hm-3 toxin from the crab spider Heriaeus melloteei (peptide)”: the results for the percent of guanidinium-enhanced IGP suppressed by 10 μM Hm-3 at −80 mV, oocytes in the test with NaV1.4 p.R222G channel and in the test with NaV1.4 p.R222W channel were 64% and 67%, respectively. In test [1], this substance showed a pKd of 5.21.

Source of the values: publication PMC5924911.
